Laboratory results reported in paper PMC4304120.

Experiments:
thrombin [1] = biological target: thrombin
thrombin [2] = experiment: SPR; BIAcore T100; thrombin (2000 RU) amine-coupled to a CM5 chip; RGD-hirudin or mutants injected at 30 uL/min in 10 mM HEPES, 150 mM NaCl, 0.005% Surfactant P20, pH 7.5; 1:1 Langmuir fit, KD calculated from ka and kd

Row | Substance | anti-thrombin specific activity (Titration Testing Method, plasma clotting) (thrombin [1]) | Kd (thrombin [2]) | koff (thrombin [2]) | kon (thrombin [2])
1 | RGD-hirudin D55A | 12000 ATU/mg | 1030 nM | 0.000383 s⁻¹ | 371 M⁻¹ s⁻¹
2 | RGD-hirudin E57A | 11000 ATU/mg | 2410 nM | 0.000374 s⁻¹ | 155 M⁻¹ s⁻¹
3 | RGD-hirudin I59A | 9000 ATU/mg | 19000 nM | 0.00139 s⁻¹ | 73 M⁻¹ s⁻¹
4 | RGD-hirudin Q53A | 14000 ATU/mg | 570 nM | 3.37e-05 s⁻¹ | 59.2 M⁻¹ s⁻¹
5 | RGD-hirudin S50A | 16000 ATU/mg | 35 nM | 3.94e-05 s⁻¹ | 1120 M⁻¹ s⁻¹
6 | RGD-hirudin Y3A | 4000 ATU/mg | – | 0.00288 s⁻¹ | –
7 | recombinant RGD-hirudin | 18000 ATU/mg | 15.5 nM | 2.73e-05 s⁻¹ | 1770 M⁻¹ s⁻¹
